Measured values published in the Immune Epitope Database (IEDB).
pIC50, pKd: −log10 of the molar value. Values belong to the sequence of their own block, whether it stands above or below them.

How the values were obtained:
HLA-A*24:03 [1] = experiment: IEDB peptide-MHC binding, purified MHC/competitive/fluorescence; filed as Kd, often an IC50 or EC50 that approximates it; ≥ and ≤ were set here for values at or beyond the usual limits of such assays
HLA-A*02:03 [2] = experiment: as above; conditions: source organism: Homo sapiens
HLA-A*02:01 [3] = experiment: as above
HLA-A*69:01 [4] = experiment: as above
HLA-B*08:01 [5] = experiment: IEDB peptide-MHC binding, purified MHC/competitive/fluorescence; ≥ and ≤ were set here for values at or beyond the usual limits of such assays; conditions: source organism: Sudan ebolavirus
HLA-A*02:01 [6] = experiment: as above; conditions: source organism: Sudan ebolavirus
HLA-A*24:03 [7] = experiment: IEDB peptide-MHC binding, purified MHC/direct/fluorescence; filed as Kd, often an IC50 or EC50 that approximates it; ≥ and ≤ were set here for values at or beyond the usual limits of such assays
HLA-A*03:01 [8] = experiment: as above
HLA-A*23:01 = experiment: as above
HLA-A*29:02 = experiment: as above
HLA-A*02:01 [9] = experiment: as above
HLA-B*51:01 = experiment: IEDB peptide-MHC binding, purified MHC/competitive/fluorescence; filed as Kd, often an IC50 or EC50 that approximates it; ≥ and ≤ were set here for values at or beyond the usual limits of such assays
HLA-B*46:01 [10] = experiment: as above
HLA-B*18:01 [11] = experiment: as above
HLA-B*57:01 [12] = experiment: as above
HLA-B*27:03 = experiment: as above
HLA-B*15:01 = experiment: as above
HLA-B*15:17 [13] = experiment: as above
HLA-A*26:01 = experiment: as above
HLA-A*69:01 [14] = experiment: IEDB peptide-MHC binding, purified MHC/direct/fluorescence; filed as Kd, often an IC50 or EC50 that approximates it; ≥ and ≤ were set here for values at or beyond the usual limits of such assays
HLA-A*02:16 = experiment: as above
HLA-A*02:12 = experiment: as above
HLA-A*02:19 = experiment: as above
HLA-B*39:01 = experiment: IEDB peptide-MHC binding, purified MHC/competitive/fluorescence; filed as Kd, often an IC50 or EC50 that approximates it; ≥ and ≤ were set here for values at or beyond the usual limits of such assays
HLA-B*58:01 [15] = experiment: as above
HLA-B*15:17 [16] = experiment: IEDB peptide-MHC binding, purified MHC/direct/fluorescence; filed as Kd, often an IC50 or EC50 that approximates it; ≥ and ≤ were set here for values at or beyond the usual limits of such assays
HLA-C*15:02 = experiment: as above; conditions: source organism: Yellow fever virus
HLA-A*01:01 = experiment: as above
HLA-B*08:01 [17] = experiment: IEDB peptide-MHC binding, purified MHC/competitive/fluorescence; filed as Kd, often an IC50 or EC50 that approximates it; ≥ and ≤ were set here for values at or beyond the usual limits of such assays
HLA-B*07:02 = experiment: as above; conditions: source organism: Vaccinia virus WR
HLA-A*03:01 [18] = experiment: as above; conditions: source organism: Vaccinia virus WR
HLA-A*68:02 = experiment: IEDB peptide-MHC binding, purified MHC/direct/fluorescence; filed as Kd, often an IC50 or EC50 that approximates it; ≥ and ≤ were set here for values at or beyond the usual limits of such assays; conditions: source organism: Araucaria virus
HLA-A*02:03 [19] = experiment: as above; conditions: source organism: Araucaria virus
HLA-C*12:03 = experiment: as above; conditions: source organism: Foot-and-mouth disease virus C1
HLA-B*46:01 [20] = experiment: as above; conditions: source organism: Bacillus anthracis
HLA-B*40:01 = experiment: as above; conditions: source organism: Bacillus anthracis
HLA-B*18:01 [21] = experiment: as above; conditions: source organism: Bacillus anthracis
HLA-B*48:01 = experiment: as above; conditions: source organism: Bacillus anthracis
HLA-A*31:01 = experiment: as above; conditions: source organism: Bacillus anthracis
HLA-B*08:01 [22] = experiment: as above; conditions: source organism: Bacillus cereus 03BB108
HLA-B*57:01 [23] = experiment: as above; conditions: source organism: Bacillus anthracis
HLA-B*58:01 [24] = experiment: as above; conditions: source organism: Bacillus anthracis
HLA-B*27:05 = experiment: as above; conditions: source organism: Bacillus anthracis
HLA-A*11:01 = experiment: IEDB peptide-MHC binding, purified MHC/competitive/fluorescence; filed as Kd, often an IC50 or EC50 that approximates it; ≥ and ≤ were set here for values at or beyond the usual limits of such assays; conditions: source organism: Bacillus anthracis str. A0389
[25] = source organism: Zaire ebolavirus
[26] = source organism: Rickettsia felis URRWXCal2
[27] = source organism: Limestone Canyon virus
[28] = source organism: Four Corners hantavirus
[29] = source organism: Araucaria virus
[30] = source organism: Rickettsia sibirica 246
[31] = source organism: Bacillus anthracis

Sequence: CYPYDVPDY
pKd (HLA-A*24:03 [1]; source organism: Influenza A virus): 6.65

pKd (HLA-A*02:03 [2]): 8.90
pKd (HLA-A*02:01 [3]; source organism: Homo sapiens): 7.73
pKd (HLA-A*69:01 [4]; source organism: Homo sapiens): ≤ 4.70
Sequence: FLHSGTAKS

Sequence: FLYDRLAST
pIC50 (HLA-B*08:01 [5]): 4.39
pIC50 (HLA-A*02:01 [6]): 6.05
pKd (HLA-A*24:03 [7]; [25]): ≤ 4.70
pKd (HLA-A*03:01 [8]; [25]): ≤ 4.70
pKd (HLA-A*23:01; [25]): ≤ 4.70
pKd (HLA-A*29:02; [25]): ≤ 4.70
pKd (HLA-A*02:01 [9]; [25]): 8.66
pKd (HLA-B*51:01; [25]): ≤ 4.70
pKd (HLA-B*46:01 [10]; [25]): ≤ 4.70
pKd (HLA-B*18:01 [11]; [25]): ≤ 4.70
pKd (HLA-B*57:01 [12]; [25]): ≤ 4.70
pKd (HLA-B*27:03; [25]): ≤ 4.70
pKd (HLA-B*15:01; [25]): ≤ 4.70
pKd (HLA-B*15:17 [13]; [25]): ≤ 4.70
pKd (HLA-A*26:01; [25]): ≤ 4.70
pKd (HLA-A*69:01 [4]; [25]): ≤ 4.70

Sequence: GYTVARSQL
pKd (HLA-A*24:03 [7]; [26]): 7.66
pKd (HLA-A*23:01; [26]): 6.33

Sequence: IYQARFMKY
pKd (HLA-A*69:01 [14]; source organism: Burkholderia mallei): ≤ 4.70
pKd (HLA-A*24:03 [1]; source organism: Pseudomonas aeruginosa PACS2): 9.10

Sequence: KSAFYQSYL
pKd (HLA-A*02:16; [27]): ≤ 4.70
pKd (HLA-A*03:01 [8]; [27]): ≤ 4.70
pKd (HLA-A*29:02; [27]): ≤ 4.70
pKd (HLA-A*02:12; [27]): ≤ 4.70
pKd (HLA-A*02:19; [27]): ≤ 4.70
pKd (HLA-B*39:01; [28]): ≤ 4.70
pKd (HLA-B*46:01 [10]; [28]): ≤ 4.70
pKd (HLA-B*18:01 [11]; [28]): ≤ 4.70
pKd (HLA-B*27:03; [28]): ≤ 4.70
pKd (HLA-B*15:01; [28]): ≤ 4.70
pKd (HLA-B*58:01 [15]; [28]): 8.68
pKd (HLA-A*26:01; [28]): ≤ 4.70
pKd (HLA-A*69:01 [4]; [28]): ≤ 4.70

Sequence: KTNDRKWCF
pKd (HLA-B*15:17 [16]; source organism: Yellow fever virus 17D): 7.58
pKd (HLA-C*15:02): 6.07

Sequence: LSDLKKTIY
pKd (HLA-A*01:01; source organism: Cowpox virus (Brighton Red)): 8.46
pKd (HLA-B*08:01 [17]; source organism: Vaccinia virus WR): ≤ 4.70
pKd (HLA-B*07:02): ≤ 4.70
pKd (HLA-A*03:01 [18]): ≤ 4.70

Sequence: LYVAGVPEL
pKd (HLA-A*68:02): ≤ 4.70
pKd (HLA-A*02:03 [19]): ≤ 4.70
pKd (HLA-A*02:16; [29]): ≤ 4.70
pKd (HLA-A*03:01 [8]; [29]): ≤ 4.70
pKd (HLA-A*29:02; [29]): ≤ 4.70
pKd (HLA-A*02:12; [29]): ≤ 4.70
pKd (HLA-A*02:19; [29]): ≤ 4.70
pKd (HLA-B*39:01; [29]): ≤ 4.70
pKd (HLA-B*51:01; [29]): ≤ 4.70
pKd (HLA-B*46:01 [10]; [29]): ≤ 4.70
pKd (HLA-B*18:01 [11]; [29]): ≤ 4.70
pKd (HLA-B*57:01 [12]; [29]): ≤ 4.70
pKd (HLA-A*24:03 [1]; [29]): 9.52
pKd (HLA-B*27:03; [29]): ≤ 4.70
pKd (HLA-B*15:17 [13]; [29]): ≤ 4.70
pKd (HLA-A*26:01; [29]): ≤ 4.70
pKd (HLA-A*02:01 [3]; [29]): ≤ 4.70
pKd (HLA-A*69:01 [4]; [29]): ≤ 4.70

Sequence: MFSVYDYGF
pKd (HLA-A*24:03 [7]; [30]): 8.52
pKd (HLA-A*23:01; [30]): 8.52

Sequence: MTAHITVPY
pKd (HLA-C*12:03): 7.35

Sequence: QLRENAEDM
pKd (HLA-B*08:01 [17]; source organism: Influenza A virus (A/swine/Hong Kong/81/1978(H3N2))): 5.28

pKd (HLA-B*58:01 [15]; source organism: Escherichia coli E22): 5.75
Sequence: STVADEIAF

Sequence: VTECKLIYY
pKd (HLA-B*46:01 [20]): ≤ 4.70
pKd (HLA-B*40:01): ≤ 4.70
pKd (HLA-B*18:01 [21]): ≤ 4.70
pKd (HLA-B*48:01): ≤ 4.70
pKd (HLA-A*31:01): ≤ 4.70
pKd (HLA-B*08:01 [22]): ≤ 4.70
pKd (HLA-B*57:01 [23]): ≤ 4.70
pKd (HLA-A*01:01; [31]): 8.15
pKd (HLA-A*03:01 [8]; [31]): ≤ 4.70
pKd (HLA-B*58:01 [24]): ≤ 4.70
pKd (HLA-B*15:17 [16]; [31]): 7.46
pKd (HLA-A*02:01 [9]; [31]): ≤ 4.70
pKd (HLA-B*27:05): ≤ 4.70
pKd (HLA-A*69:01 [14]; [31]): ≤ 4.70
pKd (HLA-A*11:01): 5.90
pKd (HLA-B*15:01; source organism: Bacillus anthracis str. A0389): ≤ 4.70
